The supplement of paper PMC10724198

Assays:
Saccharomyces cerevisiae [1] = assay: protein stability index of tFT-peptide fusion in wild type (PSI (0-1 scale)); higher = more stable (slower turnover); details: genetic background: wild type
Procedure: (§1)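 MPS profiling in S. cerevisiae of two library types built from selected 12-aa C-degron peptides (IN1, IN2, LN1, LN3, VN2, R1-R5, W1-W3, Atg1 and Rpa12 C-termini): saturation mutagenesis libraries and C-terminal +1 capping libraries (13 aa). Each peptide is fused to the C-terminus of a sfGFP-mCherry timer, after a GGGS linker. Cells are FACS-sorted into 8 mCherry/sfGFP bins and sequenced. PSI runs from 0 (unstable) to 1 (stable), measured once in wild type and in the das1Δ or doa10Δ background.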

Saccharomyces cerevisiae [2] = assay: protein stability index of tFT-peptide fusion in deletion strain of DAS1 (PSI (0-1 scale)); higher = more stable (slower turnover)
Procedure: as §1
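Throughout, for protein stability index of tFT-peptide fusion in deletion strain of DAS1: PSI is a weighted mean of each variant's read distribution over the sorted stability bins, computed only for variants having over 10 reads in total.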
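Throughout, for protein stability index of tFT-peptide fusion in wild type: PSI derived as read-weighted mean over the 8 sorting bins, only variants exceeding 10 total reads kept, mCherry placed adjacent to the peptide and sfGFP distal.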

Sequence | protein stability index (Saccharomyces cerevisiae [1]) | protein stability index (Saccharomyces cerevisiae [2])
LKILRQKMNHQNG | 0.657 | 0.662
LKILRQKMNHQNI | 0.65 | 0.685
LKILRQKMNHQNM | 0.601 | 0.592
LKILRQKMNHQNW | 0.659 | 0.67
LKILRQKMNHQP | 0.373 | 0.677
LKILRQKMNNQN | 0.267 | 0.707
LKILRQKMTHQN | 0.273 | 0.688
LKILRQKQNHQN | 0.302 | 0.64
LKILRQKWNHQN | 0.194 | 0.662
LKILRQKYNHQN | 0.189 | 0.7
LKILRQQMNHQN | 0.206 | 0.584
LKINRQKMNHQN | 0.209 | 0.682
LKIRRQKMNHQN | 0.246 | 0.687
LKITRQKMNHQN | 0.229 | 0.674
LVILRQKMNHQN | 0.135 | 0.675
LVVSLSCVACIN | 0.0181 | 0.0593
LVVYASCVACIN | 0.023 | 0.0371
LVVYFSCVACIN | 0.0194 | 0.0148
LVVYLHCVACIN | 0.0158 | 0.0327
LVVYLRCVACIN | 0.0199 | 0.0318

Sequence | protein stability index (Saccharomyces cerevisiae [1]) | protein stability index (Saccharomyces cerevisiae [2])
LVVYLSCCACIN | 0.0859 | 0.138
LVVYLSCIACIN | 0.0141 | 0.0218
LVVYLSCLACIN | 0.0182 | 0.0537
LVVYLSCVACIND | 0.0204 | 0.0356
LVVYLSCVACING | 0.0204 | 0.0326
LVVYLSCVACINN | 0.0233 | 0.037
LVVYLSCVACIR | 0.0163 | 0.0325
LVVYLSCVACIY | 0.0122 | 0.0359
LVVYLSCVARIN | 0.0258 | 0.0375
LVVYLSCVATIN | 0.0174 | 0.0278
LVVYLSCVAVIN | 0.0169 | 0.0276
LVVYLSCVCCIN | 0.461 | 0.415
LVVYLSCVVCIN | 0.0309 | 0.0986
LVVYLSKVACIN | 0.0955 | 0.38
LVVYLSTVACIN | 0.0656 | 0.161
LVVYLSWVACIN | 0.0137 | 0.0348
LVVYPSCVACIN | 0.248 | 0.337
LVVYVSCVACIN | 0.0192 | 0.0341
LVVYWSCVACIN | 0.0151 | 0.0704
NLIQPLPVQFLN | 0.0875 | 0.582

Sequence | protein stability index (Saccharomyces cerevisiae [1]) | protein stability index (Saccharomyces cerevisiae [2])
NRWRVGLWRGAS | 0.454 | 0.685
PDHRNHLIKLLN | 0.0948 | 0.589
PDKANHLIKLLN | 0.183 | 0.594
PDKGNHLIKLLN | 0.23 | 0.635
PDKINHLIKLLN | 0.135 | 0.578
PDKRDHLIKLLN | 0.105 | 0.599
PDKRMHLIKLLN | 0.0774 | 0.592
PDKRNALIKLLN | 0.142 | 0.629
PDKRNDLIKLLN | 0.184 | 0.626
PDKRNHLAKLLN | 0.0907 | 0.547
PDKRNHLGKLLN | 0.428 | 0.593
PDKRNHLIKGLN | 0.546 | 0.619
PDKRNHLIKLGN | 0.617 | 0.605
PDKRNHLIKLLA | 0.114 | 0.57
PDKRNHLIKLLC | 0.0722 | 0.577
PDKRNHLIKLLF | 0.269 | 0.576
PDKRNHLIKLLNQ | 0.316 | 0.667
PDKRNHLIKLLNR | 0.652 | 0.668
PDKRNHLIKLLNV | 0.203 | 0.659
